# Laboratory results taken from patent US20230079150A1, “METHODS FOR PREVENTION OR TREATMENT OF VIRUS-INDUCED ORGAN INJURY OR FAILURE WITH IL-22 DIMER” (priority 2020, published 2023).
# B1: F-652: recombinant IL-22 dimer consisting of two monomeric subunits each comprising a sequence shown in SEQ ID NO: 24 (protein)
# chain 1: APISSHCRLDKSNFQQPYITNRTFMLAKEASLADNNTDVRLIGEKLFHGVSMSERCYLMKQVLNFTLEEVLFPQSDRFQPYMQEVVPFLARLSNRLSTCHIEGDDLHIQRNVQKLKDTVKKLGESGEIKAIGELDLLFMSLRNACIGSGGGSGGGGSGGGGSVECPPCPAPPVAGPSVFLFPPKPKDTLMISRTPEVTCVVVDVSHEDPEVQFNWYVDGVEVHNAKTKPREEQFNSTFRVVSVLTVVHQDWLNGKEYKCKVSNKGLPASIEKTISKTKGQPREPQVYTLPPSREEMTKNQVSLTCLVKGFYPSDIAVEWESNGQPENNYKTTPPMLDSDGSFFLYSKLTVDKSRWQQGNVFSCSVMHEALHNHYTQKSLSLSPGK
# chain 2: B1 chain 1
# modifications: homodimer
# Columns and labels:
# [1] = test system: IL-22Ra1; assay: IL-22Ra1 receptor immunofluorescence in HUVECs; format: cell-based, human
# Experimental: HUVECs were fixed in 3.5% formaldehyde in PBS for 10 minutes. Cells were then blocked in 1% BSA in PBS for one hour. Cells were then incubated overnight in primary antibody for IL-22Ra1 (Invitrogen, Carlsbad, Calif.) diluted 1:100 in 1% BSA in PBS. Cells were then washed with PBS 3 times. Cells were incubated with secondary antibody, goat anti-mouse Alexa Fluor 488 (1:500; Invitrogen, A28175) diluted 1:500 in 1% BSA in PBS along with 0.1 μg/ml of 4,6 diamidino-2phylindole (DAPI) (Sigma) for one hour, followed by three washes in PBS. Cells were then cover slipped with Fluoro Gel mounting medium and imaged on an EVOS fluorescence microscope. Fluorescence intensity was quantified using ImageJ.
# [2] = test system: Human umbilical vein endothelial cells (HUVEC); assay: Glycocalyx quantification (WGA staining) in HUVECs with or without LPS; format: cell-based
# Experimental: Human umbilical vein endothelial cells (HUVEC) were purchased from the American Type Culture Collection. Cells were initially grown in 2% gelatin-coated 10-cm plastic dishes using M200 medium supplemented with low serum growth supplement (LSGS) and penicillin/streptomycin in a cell culture incubator at 37° C. with 5% CO2 atmosphere. Cells were passaged by digestion in 0.25% trypsin in Hanks' Balanced Salt Solution (HBSS) after reaching 80% confluence. Cells were used for experiments between passages 1-3. For glycocalyx quantification, HUVECs were plated in 48-well plastic cell culture plates coated with 2% gelatin, at a confluence of approximately 80%. M200+LSGS+penicillin/streptomycin was supplemented with 1% bovine serum albumin (BSA) to support glycocalyx growth. Cells were cultured for 24 hours to allow glycocalyx development before LPS exposure.
# After completion of the LPS exposure with or without F-652, HUVECs were fixed by addition of concentrated formaldehyde solution directly to the culture medium to yield a final formaldehyde concentration of 3.5%. […] Glycocalyx and nuclei (4′,6-diamidino-2-phenylindole) were imaged on an EVOS fluorescence microscope under identical conditions. […] ImageJ software was used to quantify glycocalyx fluorescence intensity overlaying the nuclei of each visible cell.
molecule,measurement,setting,value
B1,IL-22Ra1 receptor expression compared to control,[1]; F-652 alone,did not result in a difference
same,IL-22Ra1 receptor relative expression,"[1]; LPS and F-652, control 1.00",0.69 RE
same,glycocalyx staining intensity,"[2]; 0.375 μg/mL F-652 alone, 24 hours, control 6.09",5.08 AU
same,glycocalyx staining intensity,"[2]; 1 μg/mL LPS and 0.375 μg/mL F-652, 24 hours, control 6.09, LPS 5.10",5.86 AU
